Experiment: label from the status in PepcDB records

Sequence | protein production
MSLETVRLQRELIEAQRQTYNEMRTYFTVNGVEGVIGAVFDEGVITLRVPSEVLFAPGAVELAPGADRVLATLKDLFIRRREQNINIKGFTDDVQPSANARFKDNWEVSALRSVNVLRYFLGAGIEPARLTATGLGELDPLFPNTSDENRARNRRVEFVLERRVVREGHHHHHH | not failed
TGPQGPPGPAGPKGAKGETGPQGPPGPAGPKGAKGDSGVPLSYEFTQKVESSNGTAVFGLLSNGFVEVRITGSYSSDVFNIPYNYRPLKAGTQMALFSTSGVGVAKVGEDKITIQGYSRNAQCSGTVLYPHREF | failed
MGISTNHTTFDGLSFKTFLENLASLLHEKPLSTPPCNDRTLLKARDPPSVAFPHHELVKFQDCETTTVFEATSEHLDFKIFKLSSEQIKKLKERASETSNGNVRVTGFNVVTALVWRCKALSVAAEEGEETNLERESTILYAVDIRGRLNPELPPSYTGNAVLTAYAKEKCKALLEEPFGRIVEMVGEGSKRITDEYARSAIDWGELYKGFPHGEVLVSSWWKLGFAEVEYPWGKPKYSCPVVYHRKDIVLLFPDIDGDSKGVYVLAALPSKEMSKFQHWFEDTLC | failed
MKRLLLCLIVIAQTILSLTAQTTEELSRMQTLIDHMAYTEALAWADSCSLQDEQALHLRAKALSELGRHPEAFAVYQRIVRMDPHDAVAYRLGAALQVDMQDYATAAEMLHQGYERTSDIPTGYDLAKLLVHIGQDSTALVITDRILRQDSLPPVIRLRAKALNKRQQPSQAIALLEEQMLRDSTDFLTLIDLATLYGQVEETRRQEQVTARYLQTDSLNVAVLLAHAESMMMLQEADSALHDYERIIGRGHFPTSFKDLFYCGLAYYKTGRWAVAEECFRRADESAFQQNYLTKYYLGMCAYRQKLWEEAEKRLQKLLDLIEPKTDRLTDVHTMLGRCANEQGRTETAISHLRYAIEYDSGNSEACLLLAQCFEKTGNRTGAIHMYRRVLDKERASTAKNDIEGFRRLAEARSRLSLLKADDSEDEETP | failed
MPWKNTESRYSTMTIALHWLMLVLLAVVYACIEFRGIFPKGSGGRTLIVEAHFMLGLTVFALVWLRLFARAQGVAPKILPTPPHWQRLLSTLMHWALYLFMIAMPILGWLTTSAKGHQVMFYGLDLPLLLAENKPLAKQLQGWHELLGTVGYWLIGLHALAGLYHHYVMRDNTLQRMWRKRGQA | failed
ERLETAQDLLELEGITPELAAKLAERQVHTRDDLAELSTDELAEIAGLQEEEASDLIMRARAHWFDEE | failed
MGKEERAKWVNDEYAKAYEKMKSYGEQVKKADKPRVLYLKRSDLTLQGNDNFIKESMELAGADNIAAEAKSITMEEILKLDPEIILLSDFDKFLPQDLYENRIEGQDWSSVSAVVNKRVYKTPVGIYRWDAPGVETPLMMFWLGKMLQPEILEHHHHHH | failed
MAPNASCLCVHVRSEEWDLMTFDANPYDSVKKIKEHVRSKTKVPVQDQVLLLGSKILKPRRSLSSYGTDKEKTIHLTLKVVKPSDEELPLFLVESGDEAKRHLLQVRRSSSVAQVKAMIETKTGIIPETQIVTCNGKRLEDGKMMADYGIRKGNLLFLASYCIGG | failed
MDDGQDAGRSGHRKAATAREGAEAMKPETPGGTAALAKGLTLLDMVADAPEPPRFAELLRASGLPKPTFARILRTLIAYGLVRQDEARGTYVLGQRFLEMSHKVWESFDLVSAATPELERLAAELGETVALCRLDGTMTQYLAERSPNGLSVRVEVGRRVPLHCTAPGKALLAFQDPAVGRALLDRLTLDLQTAKTITTLDALQADLTLTRARGYSISYEEHLPGVNSVAAPVMGRDNTPMGVLVALGPSSRLDSSNIHPAGRELIAAARRITGAAGAVAISSRPRPRSATGRPSAELSCILPWGAQLGESPVWHEGEDALYWVDILHPAVHRFDPATGRNETCETGKLVSAVIPVTGGRLLVASQDGVEWLDFASGRLTPFVSPEAGIADNRLNDAKCGPDGAIWVGSMRIDASKPTGALYRINANGASERKEGGIIVSNGLGWSPDGRTFYFVDTVPGLIHAYDCDPATGALSQRREFARIPVADGRPDGLAVDAEGGVWCAIWDGWCVRRYLPNGKLDQVIDMPVPRPSSIAFGGPDLSTLFITSARTRLPASTLADAPLSGGLFSCRPGISGARIAMFEG | failed
MKKLSGIIVLLLAGAALYLALKTSPIDPLAWDAPAAPQMTGVLEPNDTLMKAELLGQGQLHGPEDTAVDSQGRVYAGLADGRVVRLDASGKVETFVDTGGRPLGMDFDAAGNLILADAWKGLLRIDPQGKVETLATEADSVPFAFTDDLDIASDGRIYFSDASSKFHQPDYILDLLEARPHGRLLRYDPSTGKTEVLLKDLYFANGVALSANEDFVLVNETYRYRITRYWLKGEKAGQHEVFIDNLPGLPDNLQGDRKGTFWVALPTPRKADADFLHRHPWLKAQLAKLPRMFLPKPTAYGLVIAIDEQGRIVRSLHDTSGHHLRMITSAKPVGDQLYFGSLENDRIGRLAIPLEHHHHHH | not failed
LQCEICGFTCRQKASLNWHQRKHAETVAALRFPCEFCGKRFEKPDSVAAHRSKSHPALLLAPQES | not failed
MSDSLFLSLAKFDVILSGSTNSNILHDVMGQVIDRSEIQDLNANNKPTKKIDFHLRDQHDTRLACILWGKYAEIVDKACQESTDGIVVCLIRFAKINLYNDTRSVSNFFDVSQVFVDPTLAELDLFKQSIP | failed
EFVINPNGKSEVCILHEYMQRVLKVRPVYNFFECENPSEPFGASVTIDGVTYGSGTASSKKLAKNKAARATLEILIPDFVKQTSE | not failed
YCKTIPMPDLAYSEISVIGKLIRALPEPCALHLANSSTVRYAQLFTVPPQVEICCNRGVNGIEGSLSTAIGYAAASSKLNFIIIGDLSFFYDMNALWNQNYGANIRILLLNNEGGEIFHTLPGMDKSSRSREFITAEHYTTAKGWAEERGFIYMKVTGEEELEEAMQPFTSPETRMQPMLLEVFTDKEKDTTLLREYYHGLKNKNE | failed
MTRVLYCGDTSLETAAGYLAGLMTSWQWEFDYIPSHVGLDVGELLAKQDLVILSDYPAERMTAQAIDQLVTMVKAGCGLVMLGGWESYHGLGGNWDQTLLAEVLPVDIKSADDRINFDQPTLAIPAAINSVSHPILQNLPWEDRPPTIGGLNRIAAKAKAQTLLMARVWRPTFSLEHGKTTWEHADHHPLLVVGEAGTGRVAAFASDVAPHWVGGLVDWGDERVTSQAPGAGAIEVGNLYSQFFRQMLEWVAKSTR | not failed
MTKLEQIQQWTAQHHASMTYLSNPKTIEYLTGFGSDPIERVLALVVFPDQDPFIFAPALEVEVIKETGWQFPVIGYLDHENPWAMIADQVKQRHVNPEHVAIEKGQLQVARMEALAAQFSAPSFDLDITSFIEHMR | not failed
MNMQKLRIELGEETNDELYDLLLLADPSKDIVDEYLERGECYTAWAGDELAGVYVLLKTRPQTVEIVNIAVKESLQKKGFGKQLVLDAIEKAKKLGADTIEIGTGNSSIHQLSLYQKCGFRIQAIDHDFFLRHYDEDIFENGIQCRDMVRLYLDLLEHHHHHH | not failed
RGLRRGTLRIGSFGPTSSMRLLPALLARYRQQYPGIEVHIDEGPDEQVLQWLLERRVDIAFAVLPDPRFVCCPLVEDQMVAVLPAGHRLADRPRVTLAELCGEPFALSGAGSAELVMRLFQAARLQPNIRYRCGQLLSTLDTVARG | failed
MEIEFMTNVAVRRPNLNDVDELYLFFRIVITNTYKNEGLSQSLDDIENEINSKKQYLKSDFDSNGEGRYFLLAIDTSNDKIIGTIEIGPASTLINSCTGGVLKNLYEIGTVFILPEYQRKGIGSLLLHTMFLTLLSRGITEYCLDSGYKNAQSIWTKKFGKPSYVLKDYWGESSDHMIWKKSLHDTPIIFEL | failed
MSLQLINLNSDLKRLRDEGYFIQVKNGFLIMRDVPYVNSNRHVCRGTIISSLSLAGDRTRIPDTHVVHFDGDMPCNAEGEALNAVVLQSSIFDLGRGITAKHMFSSKPKSGYTDYYHKMTTYASILSGHAEVLNSGISPKVFSTPEDEEDSVFNYTETASGRVGIGALSDLLTEE | failed
REEDPHEGKIWFHGKISKQEAYNLLMTVGQVCSFLVRPSDNTPGDYSLYFRTNENIQRFKICPTPNNQFMMGGRYYNSIGDIIDHYRKEQIVEGYYLKEPVPMQDQ | not failed

Source: a protein production outcome set (Wang et al. 2014)
